In test [1] the target is T1, Human SLC34A1 (human, UniProt Q06495).
T1 sequence (target protein, looked up): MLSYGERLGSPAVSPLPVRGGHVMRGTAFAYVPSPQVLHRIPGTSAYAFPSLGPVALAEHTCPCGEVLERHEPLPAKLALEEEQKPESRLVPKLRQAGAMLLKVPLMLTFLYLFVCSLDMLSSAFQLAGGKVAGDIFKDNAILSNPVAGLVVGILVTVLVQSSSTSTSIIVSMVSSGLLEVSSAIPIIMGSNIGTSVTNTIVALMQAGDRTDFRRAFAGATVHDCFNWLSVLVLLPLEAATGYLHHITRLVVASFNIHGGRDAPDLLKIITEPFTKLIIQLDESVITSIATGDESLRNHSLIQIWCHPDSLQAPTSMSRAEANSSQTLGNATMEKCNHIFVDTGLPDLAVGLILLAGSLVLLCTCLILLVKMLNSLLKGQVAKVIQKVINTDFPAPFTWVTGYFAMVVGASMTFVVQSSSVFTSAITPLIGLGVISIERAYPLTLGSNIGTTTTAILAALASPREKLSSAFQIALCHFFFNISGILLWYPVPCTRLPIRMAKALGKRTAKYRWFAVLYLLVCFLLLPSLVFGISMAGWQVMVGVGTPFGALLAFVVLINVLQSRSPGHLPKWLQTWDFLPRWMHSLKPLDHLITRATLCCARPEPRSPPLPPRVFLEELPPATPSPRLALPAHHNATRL
Description: flow cytometry on 293-FT cells transiently transfected with human SLC34A1, overlay with isotype control.

The target in another test is T2, Rat SLC34A2 (rat, UniProt Q9JJ09 1-695).
T2 construct: whole, on cells; also called Rat1E cells expressing SLC34A2 (Rat)
T2 sequence (looked up): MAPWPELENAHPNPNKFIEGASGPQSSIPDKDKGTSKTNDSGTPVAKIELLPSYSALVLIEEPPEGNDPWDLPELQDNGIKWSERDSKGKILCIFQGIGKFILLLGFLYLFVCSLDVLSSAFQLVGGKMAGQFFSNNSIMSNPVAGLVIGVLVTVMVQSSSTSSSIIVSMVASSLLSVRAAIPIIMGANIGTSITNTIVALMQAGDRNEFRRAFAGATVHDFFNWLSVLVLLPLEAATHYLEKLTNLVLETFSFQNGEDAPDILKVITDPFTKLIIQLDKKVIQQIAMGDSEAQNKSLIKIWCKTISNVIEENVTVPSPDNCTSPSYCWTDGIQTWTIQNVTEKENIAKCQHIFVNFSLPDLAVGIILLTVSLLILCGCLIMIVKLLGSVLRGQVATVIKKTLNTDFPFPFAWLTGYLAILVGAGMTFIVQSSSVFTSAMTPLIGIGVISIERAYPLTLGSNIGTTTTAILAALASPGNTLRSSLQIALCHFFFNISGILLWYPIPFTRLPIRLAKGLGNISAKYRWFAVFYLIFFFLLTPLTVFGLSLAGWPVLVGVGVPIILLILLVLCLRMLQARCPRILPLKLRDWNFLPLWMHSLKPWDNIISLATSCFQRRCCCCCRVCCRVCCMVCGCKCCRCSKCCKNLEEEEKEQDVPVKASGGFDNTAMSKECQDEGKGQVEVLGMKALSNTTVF
Description: binding affinity on Rat1E cells expressing rat SLC34A2.

For test [2], the target named is T3, Cyno SLC34A2 (cynomolgus monkey, UniProt A0A2K5UHY1 1-690).
T3 construct: whole, on cells; Recombinant, on Rat1E cells; also called cynomolgus monkey SLC34A2; Rat1E cells expressing SLC34A2 (Cynomolgus)
T3 sequence: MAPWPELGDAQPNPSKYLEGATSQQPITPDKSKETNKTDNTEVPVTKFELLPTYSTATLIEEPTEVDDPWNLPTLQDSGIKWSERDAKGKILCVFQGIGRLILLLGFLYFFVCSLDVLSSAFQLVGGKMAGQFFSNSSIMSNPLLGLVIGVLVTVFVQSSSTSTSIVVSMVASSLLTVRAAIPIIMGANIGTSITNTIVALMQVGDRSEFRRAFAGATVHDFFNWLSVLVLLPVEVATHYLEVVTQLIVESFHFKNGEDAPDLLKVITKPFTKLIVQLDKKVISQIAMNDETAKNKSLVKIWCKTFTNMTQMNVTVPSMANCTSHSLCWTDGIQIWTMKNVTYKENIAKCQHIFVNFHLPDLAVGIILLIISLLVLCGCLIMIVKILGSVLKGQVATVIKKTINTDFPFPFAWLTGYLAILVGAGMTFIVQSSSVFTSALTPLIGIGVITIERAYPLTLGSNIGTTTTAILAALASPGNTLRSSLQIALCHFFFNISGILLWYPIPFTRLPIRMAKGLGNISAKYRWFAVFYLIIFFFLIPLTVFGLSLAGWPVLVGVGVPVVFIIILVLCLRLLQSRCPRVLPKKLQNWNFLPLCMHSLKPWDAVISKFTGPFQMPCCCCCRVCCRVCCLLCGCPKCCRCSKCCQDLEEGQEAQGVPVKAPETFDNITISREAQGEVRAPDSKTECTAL
Description: binding affinity on Rat1E cells expressing cynomolgus SLC34A2.

Test [3] deals with T4, Human SLC34A2 (human, UniProt O95436 1-690).
T4 construct: whole, on cells; also called SLC34A2 on OVCAR3 cells; Rat 1E Human SLC34A2
T4 sequence (looked up): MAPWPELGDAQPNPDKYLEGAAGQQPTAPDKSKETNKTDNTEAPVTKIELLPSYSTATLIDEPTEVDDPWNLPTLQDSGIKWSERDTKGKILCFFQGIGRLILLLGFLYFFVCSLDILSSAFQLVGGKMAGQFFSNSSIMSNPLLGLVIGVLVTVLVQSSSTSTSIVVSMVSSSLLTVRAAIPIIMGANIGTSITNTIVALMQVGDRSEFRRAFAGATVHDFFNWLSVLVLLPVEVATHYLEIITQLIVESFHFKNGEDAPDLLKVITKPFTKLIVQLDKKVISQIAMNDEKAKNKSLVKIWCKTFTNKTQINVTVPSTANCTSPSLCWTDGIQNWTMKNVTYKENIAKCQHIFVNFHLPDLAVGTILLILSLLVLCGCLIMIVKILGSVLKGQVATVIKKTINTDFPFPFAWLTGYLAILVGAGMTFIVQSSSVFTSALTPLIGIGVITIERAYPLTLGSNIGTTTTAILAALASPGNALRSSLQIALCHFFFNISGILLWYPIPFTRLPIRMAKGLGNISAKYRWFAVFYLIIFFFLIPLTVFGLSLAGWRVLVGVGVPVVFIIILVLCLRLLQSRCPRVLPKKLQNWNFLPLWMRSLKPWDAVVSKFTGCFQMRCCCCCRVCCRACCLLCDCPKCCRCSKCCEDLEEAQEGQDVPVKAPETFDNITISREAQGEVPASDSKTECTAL
Briefly: cell binding, Rat1E cells expressing human SLC34A2.

The target of test [4] is T5, Human SLC34A3 (human, UniProt Q8N130).
T5 sequence (target protein, looked up): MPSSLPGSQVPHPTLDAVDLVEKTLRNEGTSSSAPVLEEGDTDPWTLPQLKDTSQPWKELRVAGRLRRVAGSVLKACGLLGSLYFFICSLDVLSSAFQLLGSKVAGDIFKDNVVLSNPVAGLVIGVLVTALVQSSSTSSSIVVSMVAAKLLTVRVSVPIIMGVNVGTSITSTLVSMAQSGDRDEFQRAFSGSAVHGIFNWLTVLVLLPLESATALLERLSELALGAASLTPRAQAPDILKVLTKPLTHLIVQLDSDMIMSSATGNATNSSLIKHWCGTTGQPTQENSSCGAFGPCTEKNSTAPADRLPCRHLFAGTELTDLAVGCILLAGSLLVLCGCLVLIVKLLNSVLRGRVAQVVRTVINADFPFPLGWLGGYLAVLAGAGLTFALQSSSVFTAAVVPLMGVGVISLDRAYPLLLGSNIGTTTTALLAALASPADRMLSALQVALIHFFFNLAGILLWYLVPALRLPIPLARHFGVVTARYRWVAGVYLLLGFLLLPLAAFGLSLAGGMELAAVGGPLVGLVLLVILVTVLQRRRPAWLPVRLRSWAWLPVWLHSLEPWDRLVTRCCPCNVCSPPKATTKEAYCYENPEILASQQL
Briefly: flow cytometry on 293-FT cells transiently transfected with human SLC34A3, overlay with isotype control.

For the next test, the target named is Murine SLC34A2 (murine) (UniProt Q9DBP0). Briefly: cell binding, Rat1E cells expressing murine SLC34A2.
The target of test [5] is T3, Cyno SLC34A2. Briefly: cell binding, Rat1E cells expressing cyno SLC34A2.
Test [6] has as its target T4, Human SLC34A2. Briefly: cell binding, OVCAR3 cells.
Test [7] concerns the target T4, Human SLC34A2. Briefly: binding affinity on Rat1E cells expressing human SLC34A2.
The target of test [8] is T4, Human SLC34A2. Briefly: cell-based or functional assay.
For test [9], the target named is T1, Human SLC34A1. Briefly: flow cytometry on 293-FT cells transiently transfected with human SLC34A1, overlay with isotype control ADC.
Test [10] addresses T5, Human SLC34A3. Briefly: flow cytometry on 293-FT cells transiently transfected with human SLC34A3, overlay with isotype control ADC. In general terms: Flow cytometry measures light scatter and fluorescence of single cells or particles in a stream.

Positions count from the first letter of the chain named. Numbers in names are those of the source.

B1: cHv83-1b15.G1(L328C)k (antibody, V domains shown)
VH: EVQLVESGGGWVQPGGSLRLSCAASGFTFSSHIMYWVRQAPGKGLEYVSGISSNGLSSYYVDSVKGRFTISRDNSKNLLYVHMGSLKPEDMAMYYCARGGRDRVPAVFDYWGQGTLVTVSS
VL: DIQMTQSPSSLSASIGDRVTITCRASQSIGTFLNWYQQKPGKAPKVLIYVASSLQSGVPSRFIGSGSGTDFTLTISSLQPEDFATYYCQQSYSVPITFGQGTRLEIKR
notes: the name says L328C in the IgG1 constant region; also called [Ag]AB-3; cHv83-1b15.G1k(L328C)k
By Kd is commonly meant a measure of binding affinity in units of concentration. Regarding B1, the binding result with Human SLC34A1 [1] and with Human SLC34A3 [4] was “no binding” in each case. The Kd came out at 246 pM in the test with Rat SLC34A2; 670 pM with Cyno SLC34A2 [2]; 1030 pM in the test with Human SLC34A2 [3]; 63.1 pM in the test with Murine SLC34A2 (murine); 967 pM in the test with Cyno SLC34A2 [5]; 3790 pM with Human SLC34A2 [6]. This molecule had a Kd with Human SLC34A2 [7] of 721 pM. In addition, the Bmax in the test with Murine SLC34A2 (murine) amounted to 15000.

B2: cHv83-1b15.G1(L328C)k-AGL-01332-93 (OT#2) (other)
VH: B1 VH
VL: B1 VL
modifications: AGL-01332-93 drug-linker conjugated to the antibody; engineered Cys at 328 (L328C) lies in the IgG1 constant region, outside the VH pieces given
notes: Human IgG1 (L328C) / kappa
Regarding B2, the Kd with Rat SLC34A2 is 913 pM; with Cyno SLC34A2 [2], 1200 pM; with Human SLC34A2 [7], 1760 pM. For the same molecule, the “in vitro cytotoxicity in target-positive OVCAR3 cells” value with Human SLC34A2 [8] is > 10 fold better EC50 than the benchmark ADC. For the same molecule, the binding result in the test with Human SLC34A1 [9] and in the test with Human SLC34A3 [10] was “no binding” in each case.

B3: cHv83-3a23.G1(L328C)k-AGL-01332-93 (OT#1) (other)
VH: EVQLVESGGGLVQPGGSLRLSCAASGFTFSSYVMHWVRQAPGKGLEYVSGVSSSGDSTFYVDSVKGRFTISRDNSKNTLYLQMGSLRAEDMAVYYCARGGITGAPLVFDIWGQGTMVTVSS
VL: B1 VL with I15V, G30S, T31R, A51T, I63S, S93N, V94T
modifications: AGL-01332-93 drug-linker conjugated to the antibody; engineered Cys at 328 (L328C) lies in the IgG1 constant region, outside the VH pieces given
notes: Human IgG1 (L328C) / kappa
Consider B3, for which the equilibrium dissociation constant (Kd) with Rat SLC34A2 was 686 pM; with Cyno SLC34A2 [2] it was 227 pM; in the test with Human SLC34A2 [7], 411 pM. For the same molecule, the “in vitro cytotoxicity in target-positive OVCAR3 cells” value in the test with Human SLC34A2 [8] was > 10 fold better EC50 than the benchmark ADC. Besides, the binding result with Human SLC34A1 [9] and with Human SLC34A3 [10] was “no binding” in each case.

B4: cHv83-3a23.G1(L328C)k (antibody, V domains shown)
VH: B3 VH
VL: B1 VL with I15V, G30S, T31R, A51T, I63S, S93N, V94T
notes: the name says L328C in the IgG1 constant region; also called [Ag]AB-2; unconjugated antibody of OT1 / OT#1
For the molecule B4, the binding result in the test with Human SLC34A1 [1] and with Human SLC34A3 [4] was “no binding” in each case. Further, the Kd in the test with Rat SLC34A2 was 689 pM; with Cyno SLC34A2 [2], 170 pM; in the test with Human SLC34A2 [3], 254 pM; with Murine SLC34A2 (murine) it was 90.3 pM; in the test with Cyno SLC34A2 [5], 170 pM; with Human SLC34A2 [6], 2280 pM. In the test with Human SLC34A2 [7], the Kd amounted to 553 pM. Besides, in the test with Murine SLC34A2 (murine), the Bmax was determined as 11300.
